According to US11311610B2, “Immune-modulating agents and uses therefor” (UNIVERSITY OF TECHNOLOGY SYDNEY, priority 2010, dated 2022):

Legend:
[1] = test system: interaction of LPS with LPS-binding protein (LBP); test: Assay for the interaction of LPS with LBP (ELISA); set-up: species or system mouse; conditions: 5 μg/well, 1 h before 10% sera; ELISA with anti-LBP
Method: FIG. 9 is a graphical representation showing LPS neutralization by FhHDM-1. The ability of FhHDM-1 (Δ), FhHDM-1 p1 (●) or FhHDM-1 p3 (▪) to bind to LPS was investigated by (A) incubating a range of concentrations of proteins (0.02-2 μg/well) in an LPS-coated (100 ng/well) microtitre plate. Bound peptides were detected by ELISA using rabbit anti-FhHDM-1 as a primary antibody. (B) FhHDM-1 or derived peptides (0.1 μg) were incubated in the presence of LPS (0.05-5 μg/well) and bound peptides measured as described above. Binding of peptides to the LPS-immobilized plates was expressed as a percentage of that measured for 2 μg (for panel A) or 0.1 μg (for panel B) of FhHDM-1. Data are the means±SD from three separate experiments. (C) FhHDM-1 and FhHDM-1 p3 but not FhHDM-1 p1 reduced the interaction between LPS and LBP as effectively as LL-37. LPS-coated microtitre plates were incubated with 5 μg/well of LL-37, FhHDM-1 or derived peptides for 1 h prior to the addition of 10% human sera in PBS. Interaction of LBP with LPS was measured by ELISA using an anti-LBP primary antibody and expressed as a percentage of that detected for 10% sera in the absence of added peptides. Data are the mean±SD of three separate experiments. Statistical significance was calculated using the student t-test and represent a comparison to the binding of 10% sera to immobilized LPS. (D) Binding of FITC-conjugated LPS to RAW264.7 cells was inhibited by LL-37, FhHDM-1 and peptides. […] The binding of FITC-LPS was analyzed by flow cytometry. LPS binding was expressed as a percentage of the mean fluorescence obtained for the addition of FITC-LPS to cells in the absence of peptides. […] Two hours later, sera was collected and serum levels of TNF and (F) IL-10 measured by ELISA. (G) Peritoneal macrophages were isolated, cultured unstimulated in media overnight and then levels of TNF and (H) IL-10 in the culture measured by ELISA. […]
The ability of FhHDM-1 and derived peptides to block the interaction of LPS with LPB was assessed by ELISA using an anti-LBP primary antibody. […]

[2] = test system: primary human macrophages; test: Confocal microscopy of macrophages incubated with FhHDM-1; assay type: cell-based; conditions: 10 μg/mL for 2 h
Method: FIG. 10 is a photographic representation showing representative immunofluorescent images obtained by confocal microscopy at an original magnification 100× of primary human macrophages (A) and (C) incubated with recombinant FhHDM-1 (10 μg/mL for 2 h). Images (B) and (D) were experimental controls incubated with media only. Cells were stained with mouse anti-His MAb (1/2000), goat-anti-mouse Alexa-488-conjugated secondary antibody (1/1000) (green staining) and DiI plasma membrane stain (red staining). DAPI was used for identification of the cell nucleus (blue staining).

[3] = test system: NOD mice; test: Diabetes development in NOD mice (blood glucose); assay type: in vivo
Method: FIG. 13 is a graphical representation showing that FhHDM-1 protects NOD mice from developing diabetes. FhHDM-1 was given to female NOD mice aged 4 weeks. 10 μg of FhHDM-1 was delivered i.p. in PBS on alternate days for a total of 6 doses. Blood glucose readings were taken weekly and mice with two consecutive readings >14 mmol/L were deemed diabetic.
Female NOD mice (n=10) were given recombinant HDM (10 μg in 100 μL sterile PBS) by intraperitoneal (i.p.) injection on alternate days beginning at 4 weeks of age for a total of 6 injections. Control mice were given 100 μL of sterile PBS on the same days. Blood glucose levels were measured once a week, from the age of 13 weeks, using Accu-check Advantage blood glucose strips (Roche). Animals were sacrificed when they became overtly diabetic; as defined by two random blood glucose concentrations above 12 mM. Statistical analysis of the times the animal was sacrificed was performed using survival analysis.

[4] = test system: inflammatory response to bacterial lipopolysaccharide; test: Inflammatory response to LPS in vivo after HDM pre-treatment; conditions: BALB/c mice, 1 μg i.p. 2 h before 1 μg LPS, 4 h later
Method: Female BALB/c mice were given 1 μg of FhHDM-1 i.p. and 2 h later given 1 μg of E. coli LPS i.p. After another 4 h, mice were sacrificed and serum and peritoneal macrophages assessed for the presence of inflammatory cytokines.
Female BALB/c mice (n=5) were given a single intraperitoneal injection of 1 μg of recombinant HDM two hours prior to an intraperitoneal injection of 1 μg of E. coli lipopolysaccharide. Four hours later, mice were sacrificed and blood and peritoneal cells were harvested. Peritoneal macrophages were isolated from lavage fluid based upon their adherent properties, and cultured overnight at 37° C. in RPMI supplemented with FCS. The quantities of inflammatory cytokines in both sera and culture media from macrophages were measured by ELISA.

## KARDRAMAYLAKDNLGEKITEVITILLNRL (FhHDM-1 peptide 1 comprising a truncated amphipathic helix contained in FhHDM-1) [FhHDM-1 p1, peptide in which the amphipathic helix is truncated]
[1]
  interaction between LPS and LBP: did not block

B1: FhHDM-1: 90-residue polypeptide from F. hepatica, Helminth Defense Molecule-1 (SEQ ID NO:24); recombinant form minus N-terminal signal peptide, expressed in E. coli (protein, listed as Fasciola hepatica)
chain: MRFIVLLCLAEVLLAAYVEARPSEESREKLRESGRKMVKALRDAVTKAYEKARDRAMAYLAKDNLGEKITEVITILLNRLTDRLEKYAGN
[1]
  interaction between LPS and LBP: significantly reduced
[2]
  interaction with the plasma membrane of macrophages: interacts with the plasma membrane
[3]; after 18 weeks of age
  further time the level of protection was sustained: 7 weeks
[3]; female NOD mice, 10 μg i.p. alternate days x6 from 4 weeks, at 18 weeks of age
  normoglycaemic mice: 80%
[4]
  IL-12 secreted by peritoneal macrophages: significantly less
  TNFα secreted by peritoneal macrophages: significantly less
  levels of IL-10 in circulation: significantly reduced
  quantity of TNFα in sera: also reduced this did not reach significance
